The chains are these.
B1: Smooth muscle myosin S2 synthetic peptide for GFS (MYH11), 36 residues (peptide)
peptide: KQELEEILHEMEARLEEEEDRGQQLQAERKKMAQQC
B2: Human β-cardiac myosin S2 peptide, wild-type (MYH7, 19 residues) (peptide)
peptide: EMNERLEDEEEMNAELTAK
modifications: also: in FRET: FITC on N-terminus of one monomer, terbium-DTPA-cytosine chelate on C-terminal Lys of the other
notes: Chemically synthesized; forms a coiled-coil dimer; also called human cardiac myosin S2 peptide; cardiac muscle myosin S2^pep
B5: Human skeletal myosin S2 peptide (MYH2), 19 residues (peptide)
peptide: EVTERAEDEEEINAELTAK
modifications: also: in FRET: FITC on N-terminus of one monomer, terbium-DTPA-cytosine chelate on C-terminal Lys of the other
notes: also called skeletal muscle myosin S2^pep
B7: Skeletal muscle myosin S2 synthetic peptide for GFS (MYH2), 36 residues (peptide)
peptide: KIQLEAKIKEVTERAEDEEEINAELTAKKRKLEDEC
B8: Human smooth myosin S2 peptide (MYH11), 21 residues (peptide)
peptide: EMEARLEEEEDRGQQLQAERK
modifications: also: in FRET: FITC on N-terminus of one monomer, terbium-DTPA-cytosine chelate on C-terminal Lys of the other
notes: also called smooth muscle myosin S2^pep
B9: Cardiac muscle myosin S2 synthetic peptide for GFS (MYH7), 36 residues (peptide)
peptide: KIQLEAKVKEMNERLEDEEEMNAELTAKKRKLEDEC
modifications: also: crosslinked to coverslip or silica bead through iodoacetamide-succinimidyl ester

Series [1] deals with the molecule itself. As to the kind of experiment: cell-based or functional assay.
Series [2] concerns the molecule itself. As to the kind of experiment: FRET donor lifetime on dilution of donor- and acceptor-labelled peptide; dissociation of the S2 peptide coiled-coil dimer (control).
Series [3] concerns the molecule itself. As to the kind of experiment: FRET, dimer dissociation (control); text value differs from Table 3.
The target in series [4] is B9. Kind of series: cell-based or functional assay.
Series [5] has as its target Rabbit skeletal myosin (rabbit). Kind of series: cell-based or functional assay.
Series [6] has as its target B7. Kind of series: cell-based or functional assay.
In series [7] the target is B8. Kind of series: FRET donor lifetime of the labelled smooth muscle S2 peptide dimer titrated with the peptide. From the text:
(§1) Donor probe was conjugated to C-terminus of a myosin S2 peptide monomer and acceptor probe was conjugated to N-terminus of another myosin S2 peptide. In FRET as lanthanide of the donor probe decays, energy goes to fluorescein and it emits out energy in form of light. In addition, as the monomers come closer to each other, lifetime of donor decreases indicating a decrease in distance between donor and acceptor probe; an opposite effect is observed, with an increase in distance between the probes, […]. Lifetime of donor probe was measured in milliseconds.
The specificity of peptides were later tested on the myosin S2 of the smooth muscle (MYH11). […] Smooth muscle myosin S2^pep was treated with different concentrations of anti-S2 peptides.

For series [8], the target named is B5. Kind of series: FRET donor lifetime of 2 µM labelled S2 peptide dimer titrated with destabilizer.
Text: as §1
Like cardiac muscle myosin S2^pep, dilution by decreasing the concentration of dimer skeletal muscle myosin S2^pep was performed and further was treated with different concentrations of anti-S2 peptides (FIG. 28A, 28B). Different concentrations of dimer skeletal muscle myosin S2^pep was used with anti-S2 peptides.

The target of series [9] is T1, Rabbit skeletal myosin (rabbit).
T1 construct: mature; also called rabbit whole skeletal myosin; rabbit skeletal myosin S2
As to the kind of experiment: 'previously calculated Kd values, concentrations at which half of myosin is saturated'; method and source of the myosin not stated.

Series [10] has as its target B9. As to the kind of experiment: cell-based or functional assay.
Series [11] has as its target B1. As to the kind of experiment: cell-based or functional assay.
The target in series [12] is B7. As to the kind of experiment: cell-based or functional assay.
In series [13] the target is B2. Kind of series: FRET donor lifetime of labelled S2 peptide dimer titrated with destabilizer.
Text: as §1
During FRET assay, cardiac muscle myosin S2^pep was treated with increasing concentrations of anti-S2 peptides. […] Dilution to decrease the concentration of dimer cardiac muscle myosin S2^pep was performed to measure binding affinity of coiled-coil peptide and in turn to measure minimal concentration for stable dimer formation (FIG. 25A). […] (FIG. 25B)

Series [14] concerns the target B2. As to the kind of experiment: competitive ELISA (curve fit of OD, FIG. 44B); antibody 1:64, 62.5 nM human cardiac S2 peptide, rabbit skeletal myosin coated; the sentence does not name the target. The method, then:
(§2) The assay began with coating 96 well microtiter plate with rabbit skeletal myosin molecule overnight. […] After incubation at room temperature for an hour, the unbound protein complexes were washed with PBS and blocking buffer. Enzyme conjugated secondary antibody were added on to the wells and allowed conjugate for an hour at room temperature. After washing the wells with detergent buffer, color developing BCIP substrate were added on to the wells. Images of the color developed in the wells were captured and analyzed in Image J.

Series [15] has as its target B2. As to the kind of experiment: competitive ELISA (FIG. 44); differs from 6 nM at paragraph 385. The method, then:
as §2
Background: In an ELISA, binding on a coated surface is turned into a signal by an enzyme label.

For series [16], the target named is T1, Rabbit skeletal myosin. As to the kind of experiment: 'previously calculated Kd values'; row stands under the IC-50 head for stabilizers, read as labeled stabilizer; method and source of the myosin not stated.

Primed or numbered codes have the meaning given here. Where no end group is shown, it is not given here. FITC′ = fluorescein isothiocyanate

A word on the Kd: it is the concentration at which binding is half-saturated.

T1 sequence (Q28641 whole entry, chain 1 of 3): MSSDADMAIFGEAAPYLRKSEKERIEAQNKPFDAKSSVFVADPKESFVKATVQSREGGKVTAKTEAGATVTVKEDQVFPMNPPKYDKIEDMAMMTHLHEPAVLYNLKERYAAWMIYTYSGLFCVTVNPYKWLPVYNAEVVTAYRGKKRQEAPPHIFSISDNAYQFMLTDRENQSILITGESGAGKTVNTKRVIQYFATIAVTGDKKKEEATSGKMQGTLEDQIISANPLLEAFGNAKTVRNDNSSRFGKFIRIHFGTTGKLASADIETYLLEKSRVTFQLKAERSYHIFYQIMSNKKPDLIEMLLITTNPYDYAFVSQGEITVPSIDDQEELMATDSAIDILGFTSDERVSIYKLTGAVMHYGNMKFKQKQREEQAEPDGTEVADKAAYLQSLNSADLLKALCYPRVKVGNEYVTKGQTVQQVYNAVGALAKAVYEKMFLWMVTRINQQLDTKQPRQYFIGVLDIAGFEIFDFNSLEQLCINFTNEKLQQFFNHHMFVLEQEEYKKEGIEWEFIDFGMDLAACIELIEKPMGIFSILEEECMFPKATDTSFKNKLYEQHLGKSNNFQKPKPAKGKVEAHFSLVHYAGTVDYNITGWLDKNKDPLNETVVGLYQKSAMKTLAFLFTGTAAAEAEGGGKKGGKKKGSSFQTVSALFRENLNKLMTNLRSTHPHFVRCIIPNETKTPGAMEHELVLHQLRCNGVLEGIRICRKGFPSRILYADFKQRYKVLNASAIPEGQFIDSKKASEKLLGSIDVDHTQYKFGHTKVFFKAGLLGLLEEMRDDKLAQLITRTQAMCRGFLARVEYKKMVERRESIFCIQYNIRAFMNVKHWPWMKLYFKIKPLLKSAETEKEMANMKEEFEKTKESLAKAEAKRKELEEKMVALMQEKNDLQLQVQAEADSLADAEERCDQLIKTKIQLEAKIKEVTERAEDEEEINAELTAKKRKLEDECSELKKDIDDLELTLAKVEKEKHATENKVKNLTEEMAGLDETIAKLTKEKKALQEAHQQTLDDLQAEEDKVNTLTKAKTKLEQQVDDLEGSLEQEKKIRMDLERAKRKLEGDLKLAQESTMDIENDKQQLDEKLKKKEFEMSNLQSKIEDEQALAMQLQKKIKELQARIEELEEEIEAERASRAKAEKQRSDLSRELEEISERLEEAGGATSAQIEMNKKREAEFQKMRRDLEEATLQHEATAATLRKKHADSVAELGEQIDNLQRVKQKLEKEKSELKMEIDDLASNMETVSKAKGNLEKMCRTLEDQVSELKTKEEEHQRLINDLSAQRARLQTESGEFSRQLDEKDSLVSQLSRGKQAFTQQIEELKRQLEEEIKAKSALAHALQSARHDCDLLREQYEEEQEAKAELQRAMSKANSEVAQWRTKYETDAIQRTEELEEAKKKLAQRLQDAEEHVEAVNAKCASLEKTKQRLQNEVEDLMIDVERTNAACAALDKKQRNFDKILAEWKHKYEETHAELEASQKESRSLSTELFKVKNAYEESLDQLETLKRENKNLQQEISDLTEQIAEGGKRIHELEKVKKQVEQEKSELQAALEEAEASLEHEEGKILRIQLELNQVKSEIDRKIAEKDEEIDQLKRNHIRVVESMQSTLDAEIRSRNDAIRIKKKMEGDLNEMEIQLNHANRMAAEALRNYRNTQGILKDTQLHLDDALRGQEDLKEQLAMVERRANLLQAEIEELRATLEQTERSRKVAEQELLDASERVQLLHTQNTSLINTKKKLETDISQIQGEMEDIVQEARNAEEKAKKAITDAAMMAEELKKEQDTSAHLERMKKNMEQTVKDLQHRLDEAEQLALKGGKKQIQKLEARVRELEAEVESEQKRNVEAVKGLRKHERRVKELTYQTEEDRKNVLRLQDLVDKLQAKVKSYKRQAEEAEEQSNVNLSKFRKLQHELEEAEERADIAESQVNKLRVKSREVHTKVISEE
T1 sequence (P02602 2-192, chain 2 of 3, further chain): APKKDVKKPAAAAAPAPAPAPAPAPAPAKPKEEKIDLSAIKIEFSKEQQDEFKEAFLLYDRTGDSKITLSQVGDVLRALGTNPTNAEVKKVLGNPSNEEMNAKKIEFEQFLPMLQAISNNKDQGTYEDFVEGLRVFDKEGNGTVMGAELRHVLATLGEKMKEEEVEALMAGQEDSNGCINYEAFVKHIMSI
T1 sequence (P02608 2-170, chain 3 of 3, further chain): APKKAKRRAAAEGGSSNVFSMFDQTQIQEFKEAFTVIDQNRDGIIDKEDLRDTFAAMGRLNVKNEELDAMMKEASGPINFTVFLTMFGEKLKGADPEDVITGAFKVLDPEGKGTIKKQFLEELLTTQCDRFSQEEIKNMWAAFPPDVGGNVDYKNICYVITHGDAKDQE

Take B1: the “GFS: force to uncoil the S2 peptide dimer to a length of 10 nm, no anti-S2 peptide (control)” value (from here on “GFS: force … no anti-S2 peptide (control)”) in series [1] was found to be 0.461 pN.
Consider B2, for which the figures for the Kd in series [2] and in series [3] were 303 nM and 308 nM, respectively.

B3: Destabilizer peptide (peptide)
peptide: EMNERLEDEREMKAELTAK
notes: also called destabilizing peptide; unlabeled destabilizer
As for B3, the “GFS: fold decrease of the force required to uncoil the coiled coil against control” value in [4] was 1.98 times; in series [6], 2.45 times. Also, the “GFS: fold less force required to uncoil myosin in presence of destabilizer against control” value in [5] is 1.6 times. In addition, the binding result in [7] is given as “no binding”. For the same molecule, the Kd in series [8] was 469 nM; in series [9] it was 75 nM; in series [13], 1330 nM; in series [14] it was 6 nM; in series [15], 1 nM. Besides, the figures for the “GFS: force to uncoil the S2 peptide dimer to a length of 10 nm, with destabilizer” value in [10], in series [11] and in series [12] were 0.436 pN, 0.451 pN and 0.184 pN, respectively.

B4: FITC (fluorescein isothiocyanate) labeled destabilizing peptide (peptide)
peptide: {FITC′}-EMNERLEDEREMKAELTAK
notes: also called labeled Destabilizer; fluorescein labeled destabilizer peptide
On to B4, for which, in [9], the dissociation constant Kd was 176 nM.
In the case of B5, in [2], the Kd is 341 nM.

B6: Human β-cardiac mutant myosin S2 peptide (E924K), 19 residues (peptide)
peptide: EMNKRLEDEEEMNAELTAK
modifications: also: in FRET: FITC on N-terminus of one monomer, terbium-DTPA-cytosine chelate on C-terminal Lys of the other
notes: E924K already in the entry; also called Cardiac Myosin S2 Mutant, E924K
On to B6, for which the Kd in series [2] was 942 nM; in series [3], 2540 nM.
Take B7: the “GFS: force … no anti-S2 peptide (control)” value in series [1] was 0.45 pN.
B8 showed a Kd in series [2] of 302 nM.
As for B9, the “GFS: force … no anti-S2 peptide (control)” value in series [1] was determined as 0.863 pN.

B10: TRITC (tetramethylrhodamine) labeled stabilizing peptide (peptide)
peptide: KKKKKKKKFKAKKKKKK
modifications: also: TRITC label, site not given here
notes: also called labeled Stabilizer; fluorescently labelled stabilizer peptide
Turning to B10, in [16], the Kd is 330 nM.

B11: Human β-cardiac mutant myosin S2 peptide (E930del), 18 residues (peptide)
peptide: EMNERLEDEEMNAELTAK
modifications: also: in FRET: FITC on N-terminus of one monomer, terbium-DTPA-cytosine chelate on C-terminal Lys of the other
notes: Deletion of glutamate 930 already in the entry; also called Edel930; ΔE930
For the molecule B11, the dissociation constant (Kd) is 1110 nM in series [2] and 3240 nM in series [3].

Source of the values: patent US12617818 (UNIVERSITY OF NORTH TEXAS, dated 2026).
